# Results from publication PMC3605390, “Characterisation of ATP-Dependent Mur Ligases Involved in the Biogenesis of Cell Wall Peptidoglycan in Mycobacterium tuberculosis” (PLoS ONE, 2013).
# Assays:
# [1] = system: C[C@@H](N)C(=O)N[C@H](C)C(=O)O; experiment: purified protein; conditions: pH 8.5; 37.0 °C
# [2] = system: CC(=O)N[C@H]1[C@@H](OP(=O)(O)OP(=O)(O)OC[C@H]2O[C@@H](n3ccc(=O)[nH]c3=O)[C@H](O)[C@@H]2O)O[C@H](CO)[C@@H](O)[C@@H]1O[C@H](C)C(=O)N[C@@H](C)C(=O)N[C@H](CCC(=O)N[C@@H](CCC[C@@H](N)C(=O)O)C(=O)O)C(=O)O; experiment: purified protein; conditions: pH 8.5; 37.0 °C
substance,measurement,setting,value
MurF (Mycobacterium tuberculosis H37Rv),Km,[1],78.1 ± 0.2 µM
same,kcat/Km,[1],18100 ± 300 M⁻¹ s⁻¹
same,Km,[2],64.5 ± 0.2 µM
same,kcat/Km,[2],21700 ± 200 M⁻¹ s⁻¹
